Experimental data as given in FireProtDB (doi:10.1021/bi00210a045).

Conditions: Escherichia coli (strain K12), Thermal, DSC, reversible: yes, whole UniProt chain shown
[1] = pH 2.5, 25 °C, glycine or acetate 5 mM or 10 mM
[2] = pH 10.3, 25 °C, glycine or CAPS 5 mM or 10 mM
[3] = pH 10.3, Sodium glycinate 50 mM

B1: Chemotaxis protein CheY wild type, P0AE67 (protein)
chain: MADKELKFLVVDDFSTMRRIVRNLLKELGFNNVEEAEDGVDALNKLQAGGYGFVISDWNMPNMDGLELLKTIRADGAMSALPVLMVTAEAKKENIIAAAQAGASGYVVKPFTAATLEEKLNKIFEKLGM
[1]
  heat capacity change of unfolding: 0.89 kcal/mol/K
  unfolding free energy: 2.89 kcal/mol
pH 7, Sodium phosphate 50 mM
  Tm: 58 °C
  heat capacity change of unfolding: 0.69 kcal/mol/K
  unfolding enthalpy (calorimetric): 83.7 kcal/mol
[2]
  heat capacity change of unfolding: 0.84 kcal/mol/K
  unfolding free energy: 4.9 kcal/mol
[3]
  Tm: 55 °C
  heat capacity change of unfolding: 0.84 kcal/mol/K
  unfolding enthalpy (calorimetric): 67 kcal/mol
